Experimental data reported in patent publication EP1254174B1.

How the values were obtained:
Fisp12/mCTGF (mouse) = Fisp12/mCTGF (mouse) (UniProt P29268); experiment: solid-phase binding isotherm: varied RGD-affinity purified αIIbβ3 on immobilized Fisp12/mCTGF, detected with 125I-mAb15; saturable
[1] = biological target: integrin α6β1 on human cells (1064SK fibroblasts, endothelial cells) (human) (UniProt P23229); experiment: cell-based or functional assay
[2] = biological target: integrin α4 subunit on 1064SK fibroblasts (human) (UniProt P13612); experiment: cell-based or functional assay
Sequence of integrin α4 subunit on 1064SK fibroblasts (human) (P13612 34-1032): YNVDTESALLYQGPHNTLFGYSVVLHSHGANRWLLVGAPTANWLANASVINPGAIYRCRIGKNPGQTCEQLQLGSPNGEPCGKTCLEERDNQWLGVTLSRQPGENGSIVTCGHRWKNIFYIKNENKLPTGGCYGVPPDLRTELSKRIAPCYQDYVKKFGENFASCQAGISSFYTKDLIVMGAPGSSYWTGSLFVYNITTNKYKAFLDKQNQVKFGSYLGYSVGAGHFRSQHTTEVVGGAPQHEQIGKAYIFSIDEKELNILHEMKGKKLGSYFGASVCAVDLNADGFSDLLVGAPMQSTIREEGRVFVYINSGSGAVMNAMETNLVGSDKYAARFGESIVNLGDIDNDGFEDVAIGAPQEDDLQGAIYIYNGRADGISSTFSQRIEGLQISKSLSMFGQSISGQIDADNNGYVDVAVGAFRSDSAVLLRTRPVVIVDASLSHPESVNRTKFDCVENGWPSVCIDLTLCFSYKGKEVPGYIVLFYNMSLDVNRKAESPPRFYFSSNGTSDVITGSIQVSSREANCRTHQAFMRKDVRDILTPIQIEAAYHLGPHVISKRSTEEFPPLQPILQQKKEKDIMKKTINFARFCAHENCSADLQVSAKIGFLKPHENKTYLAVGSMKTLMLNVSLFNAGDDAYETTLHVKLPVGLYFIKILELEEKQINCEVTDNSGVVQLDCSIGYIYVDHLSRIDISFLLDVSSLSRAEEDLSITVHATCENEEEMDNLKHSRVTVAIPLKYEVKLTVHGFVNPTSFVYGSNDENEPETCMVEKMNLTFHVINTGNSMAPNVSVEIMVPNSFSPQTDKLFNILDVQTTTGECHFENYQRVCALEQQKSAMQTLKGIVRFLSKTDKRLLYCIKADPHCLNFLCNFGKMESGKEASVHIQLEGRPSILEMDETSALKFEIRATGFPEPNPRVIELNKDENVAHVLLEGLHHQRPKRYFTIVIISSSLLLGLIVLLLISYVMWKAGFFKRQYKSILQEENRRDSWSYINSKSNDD

[3] = biological target: αvβ3 integrin on human cells (HUVE cells, fibroblasts, platelets) (human) (UniProt P06756); experiment: cell-based or functional assay
[4] = biological target: integrin α5β1 (fibronectin receptor) on 1064SK fibroblasts (human) (UniProt P08648); experiment: cell-based or functional assay
Sequence of integrin α5β1 (fibronectin receptor) on 1064SK fibroblasts (human) (P08648 42-1049, chain 1 of 2): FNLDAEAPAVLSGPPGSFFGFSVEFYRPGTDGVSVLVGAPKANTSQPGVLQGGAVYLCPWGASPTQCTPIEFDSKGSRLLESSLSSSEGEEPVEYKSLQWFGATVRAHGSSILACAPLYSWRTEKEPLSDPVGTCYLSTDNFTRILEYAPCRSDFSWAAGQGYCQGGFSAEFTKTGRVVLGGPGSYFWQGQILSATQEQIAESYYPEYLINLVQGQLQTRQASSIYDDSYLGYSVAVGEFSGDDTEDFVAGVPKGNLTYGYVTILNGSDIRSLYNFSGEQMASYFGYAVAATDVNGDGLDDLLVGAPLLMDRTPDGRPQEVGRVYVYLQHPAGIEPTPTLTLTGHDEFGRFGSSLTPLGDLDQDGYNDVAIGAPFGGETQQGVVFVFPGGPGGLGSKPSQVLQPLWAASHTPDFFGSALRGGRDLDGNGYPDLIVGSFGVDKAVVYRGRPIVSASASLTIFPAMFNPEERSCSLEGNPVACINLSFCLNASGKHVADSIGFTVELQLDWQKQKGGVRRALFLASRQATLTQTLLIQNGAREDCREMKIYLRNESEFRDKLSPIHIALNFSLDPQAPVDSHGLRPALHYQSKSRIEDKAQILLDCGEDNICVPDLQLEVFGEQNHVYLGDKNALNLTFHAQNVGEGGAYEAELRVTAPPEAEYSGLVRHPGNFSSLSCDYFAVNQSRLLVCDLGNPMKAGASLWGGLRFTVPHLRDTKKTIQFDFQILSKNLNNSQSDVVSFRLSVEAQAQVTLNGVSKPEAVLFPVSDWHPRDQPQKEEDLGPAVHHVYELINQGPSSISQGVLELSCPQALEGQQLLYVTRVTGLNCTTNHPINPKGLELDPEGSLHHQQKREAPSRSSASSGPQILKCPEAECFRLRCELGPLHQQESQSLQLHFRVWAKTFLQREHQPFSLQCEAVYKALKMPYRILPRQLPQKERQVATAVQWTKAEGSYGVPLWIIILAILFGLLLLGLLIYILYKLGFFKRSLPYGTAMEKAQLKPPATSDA
Sequence of integrin α5β1 (fibronectin receptor) on 1064SK fibroblasts (human) (P05556 21-798, chain 2 of 2, further chain): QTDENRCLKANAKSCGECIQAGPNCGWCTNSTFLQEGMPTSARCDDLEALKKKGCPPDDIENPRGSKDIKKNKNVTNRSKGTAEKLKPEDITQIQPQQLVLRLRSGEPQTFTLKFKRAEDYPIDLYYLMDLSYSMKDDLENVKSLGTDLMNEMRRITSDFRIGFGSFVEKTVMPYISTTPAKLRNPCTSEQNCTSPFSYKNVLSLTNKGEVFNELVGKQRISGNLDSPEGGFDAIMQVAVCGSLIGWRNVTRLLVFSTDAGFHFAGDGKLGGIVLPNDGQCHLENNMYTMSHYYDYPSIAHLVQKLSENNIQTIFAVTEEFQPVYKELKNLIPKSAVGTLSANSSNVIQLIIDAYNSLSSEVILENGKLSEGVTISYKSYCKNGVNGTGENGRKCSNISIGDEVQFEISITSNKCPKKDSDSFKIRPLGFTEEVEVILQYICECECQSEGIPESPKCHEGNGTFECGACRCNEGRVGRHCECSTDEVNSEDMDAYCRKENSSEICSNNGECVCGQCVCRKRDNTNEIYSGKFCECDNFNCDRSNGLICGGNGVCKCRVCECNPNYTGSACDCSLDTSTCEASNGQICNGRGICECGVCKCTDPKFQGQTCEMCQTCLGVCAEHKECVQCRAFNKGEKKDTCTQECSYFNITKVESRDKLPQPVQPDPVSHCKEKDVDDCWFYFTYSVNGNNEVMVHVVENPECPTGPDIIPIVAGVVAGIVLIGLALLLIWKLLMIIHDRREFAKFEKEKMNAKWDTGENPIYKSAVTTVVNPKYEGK

[5] = biological target: integrin α3 subunit on 1064SK fibroblasts (human) (UniProt P26006); experiment: cell-based or functional assay
Sequence of integrin α3 subunit on 1064SK fibroblasts (human) (P26006 33-1051): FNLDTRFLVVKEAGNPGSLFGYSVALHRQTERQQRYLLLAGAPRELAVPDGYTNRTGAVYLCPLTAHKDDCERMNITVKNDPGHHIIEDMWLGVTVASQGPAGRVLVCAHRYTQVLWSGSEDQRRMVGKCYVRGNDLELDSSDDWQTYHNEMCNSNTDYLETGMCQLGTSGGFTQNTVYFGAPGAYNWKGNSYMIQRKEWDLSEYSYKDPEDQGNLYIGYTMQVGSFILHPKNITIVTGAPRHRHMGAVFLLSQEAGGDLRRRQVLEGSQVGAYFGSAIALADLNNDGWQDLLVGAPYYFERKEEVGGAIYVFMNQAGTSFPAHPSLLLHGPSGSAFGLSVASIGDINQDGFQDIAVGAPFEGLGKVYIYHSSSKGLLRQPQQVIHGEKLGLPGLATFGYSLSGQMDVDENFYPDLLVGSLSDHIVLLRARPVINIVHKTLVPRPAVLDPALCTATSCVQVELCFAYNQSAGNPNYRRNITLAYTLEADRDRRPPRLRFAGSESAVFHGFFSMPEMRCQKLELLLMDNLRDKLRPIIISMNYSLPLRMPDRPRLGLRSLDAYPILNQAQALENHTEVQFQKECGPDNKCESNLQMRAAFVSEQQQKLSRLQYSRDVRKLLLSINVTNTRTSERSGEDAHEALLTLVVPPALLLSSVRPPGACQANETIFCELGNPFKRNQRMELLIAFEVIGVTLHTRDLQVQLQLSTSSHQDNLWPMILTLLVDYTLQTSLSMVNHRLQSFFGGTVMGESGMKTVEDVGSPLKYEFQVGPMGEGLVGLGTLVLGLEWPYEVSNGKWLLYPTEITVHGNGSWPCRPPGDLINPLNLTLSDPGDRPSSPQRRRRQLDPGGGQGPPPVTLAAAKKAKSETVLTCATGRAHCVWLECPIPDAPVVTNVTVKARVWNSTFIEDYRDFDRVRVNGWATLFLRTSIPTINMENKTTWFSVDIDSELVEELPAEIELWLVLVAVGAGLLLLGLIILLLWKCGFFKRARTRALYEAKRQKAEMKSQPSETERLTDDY

[6] = biological target: integrin αv subunit (αv integrins αvβ1, αvβ3, αvβ5) on 1064SK fibroblasts (human) (UniProt P06756); experiment: cell-based or functional assay
[7] = biological target: integrin α2 subunit on 1064SK fibroblasts (human) (UniProt P17301); experiment: cell-based or functional assay
[8] = biological target: integrin α1 subunit on 1064SK fibroblasts (human) (UniProt P56199); experiment: cell-based or functional assay
[9] = biological target: integrin β1 subunit (β1 integrins) on 1064SK fibroblasts (human) (UniProt P05556); experiment: cell-based or functional assay
Sequence of integrin β1 subunit (β1 integrins) on 1064SK fibroblasts (human) (P05556 21-798): as the sequence (P05556 21-798, chain 2 of 2, further chain) above

Sequence of integrin α6β1 on human cells (1064SK fibroblasts, endothelial cells) (human) (P23229 24-1130, chain 1 of 2): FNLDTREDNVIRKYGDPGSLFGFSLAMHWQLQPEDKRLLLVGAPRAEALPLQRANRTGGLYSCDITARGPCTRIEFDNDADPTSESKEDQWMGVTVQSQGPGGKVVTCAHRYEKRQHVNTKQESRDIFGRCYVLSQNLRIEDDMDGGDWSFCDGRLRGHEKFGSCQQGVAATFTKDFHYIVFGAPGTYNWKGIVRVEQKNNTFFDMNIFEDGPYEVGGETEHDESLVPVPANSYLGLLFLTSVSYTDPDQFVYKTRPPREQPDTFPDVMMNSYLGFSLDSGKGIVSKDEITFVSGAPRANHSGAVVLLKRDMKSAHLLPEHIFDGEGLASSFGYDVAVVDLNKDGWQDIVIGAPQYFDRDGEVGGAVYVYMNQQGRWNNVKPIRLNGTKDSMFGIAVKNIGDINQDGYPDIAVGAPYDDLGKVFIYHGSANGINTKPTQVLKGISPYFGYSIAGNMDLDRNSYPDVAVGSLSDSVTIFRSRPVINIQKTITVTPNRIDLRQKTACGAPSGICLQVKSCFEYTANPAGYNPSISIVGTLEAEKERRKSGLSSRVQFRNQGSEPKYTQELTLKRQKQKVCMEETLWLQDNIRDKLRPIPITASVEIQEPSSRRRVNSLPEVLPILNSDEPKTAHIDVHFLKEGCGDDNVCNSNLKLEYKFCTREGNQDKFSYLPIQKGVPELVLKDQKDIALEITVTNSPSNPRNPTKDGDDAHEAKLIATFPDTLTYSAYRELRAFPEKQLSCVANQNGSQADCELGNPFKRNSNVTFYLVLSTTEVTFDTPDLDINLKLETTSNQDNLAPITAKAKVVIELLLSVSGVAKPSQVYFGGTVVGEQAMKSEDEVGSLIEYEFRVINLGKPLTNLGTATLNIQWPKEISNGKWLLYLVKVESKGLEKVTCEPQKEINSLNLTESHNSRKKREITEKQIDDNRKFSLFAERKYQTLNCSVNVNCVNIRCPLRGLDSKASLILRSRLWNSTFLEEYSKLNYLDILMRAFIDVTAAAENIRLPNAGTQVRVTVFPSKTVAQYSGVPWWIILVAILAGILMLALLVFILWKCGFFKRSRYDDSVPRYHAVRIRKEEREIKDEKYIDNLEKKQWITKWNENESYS
Sequence of integrin α6β1 on human cells (1064SK fibroblasts, endothelial cells) (human) (P05556 21-798, chain 2 of 2, further chain): as the sequence (P05556 21-798, chain 2 of 2, further chain) above

Substance: activated αIIbβ3 (RGD-affinity purified from human platelet lysates) (from UniProt P08514 32-1039; P05106 27-788) (receptor)
- half-saturation concentration (Fisp12/mCTGF (mouse)): 15 nM

Substance: human Cyr61 (from UniProt O00622 25-381) (ligand)
- A620, 1064SK adhesion to Cyr61 (2 µg/ml) after anti-α6 antibody (20 µg/ml); 0.53 without antibody [1]: 0.08 A620
- percent inhibition of 1064SK adhesion to Cyr61 by anti-α6 antibody [1]: > 80%
- percent inhibition of 1064SK adhesion to wild-type Cyr61 by anti-α6 antibody (20 µg/ml) [1]: 78%
- A620, 1064SK adhesion to Cyr61 (2 µg/ml) after anti-α4 antibody (40 µg/ml); control without antibody 0.58 [2]: 0.56 A620
- relative binding capacity of HUVE cells on wild-type Cyr61 (5 µg/ml) after anti-αvβ3 antibody LM609 (40 µg/ml); no pre-incubation = 100 [3]: 42%
- A620, 1064SK adhesion to Cyr61 (2 µg/ml) after anti-α5 antibody (40 µg/ml); no addition 0.75 [4]: 0.77 A620
- A620, 1064SK adhesion to Cyr61 (2 µg/ml) after anti-α3 antibody (40 µg/ml); control without antibody 0.58 [5]: 0.55 A620
- A620, 1064SK adhesion to Cyr61 (2 µg/ml) after anti-αv antibody (40 µg/ml); no addition 0.75 [6]: 0.73 A620
- A620, 1064SK adhesion to Cyr61 (2 µg/ml) after anti-α2 antibody (40 µg/ml); control without antibody 0.58 [7]: 0.6 A620
- A620, 1064SK adhesion to Cyr61 (2 µg/ml) after anti-α1 antibody (40 µg/ml); control without antibody 0.58 [8]: 0.54 A620
- A620, 1064SK adhesion to Cyr61 (2 µg/ml) after anti-β1 antibody JB1A (50 µg/ml); 0.53 without antibody [9]: 0.14 A620
- percent inhibition of 1064SK adhesion to Cyr61 by anti-β1 antibody JB1A [9]: 75%

Substance: mouse laminin (ligand)
- A620, 1064SK adhesion to laminin (5 µg/ml) after anti-α6 antibody; 0.62 without antibody [1]: 0.48 A620
- percent inhibition of 1064SK adhesion to laminin by anti-α6 antibody [1]: 22%

Substance: rat tail Type-I collagen (from UniProt P02454 152-1207; P02466 86-1125) (ligand)
- A620, 1064SK adhesion to type I collagen (2 µg/ml) after anti-β1 antibody JB1A; 0.56 without antibody [9]: 0.21 A620
- percent inhibition of 1064SK adhesion to type I collagen by anti-β1 antibody JB1A [9]: 62%
